Reference: PMC4738354, “Volta phase plate cryo-EM of the small protein complex Prx3” (Nature Communications, 2016)

Target: the molecule itself
Assay: cryo-EM structure; single-particle cryo-EM with Volta phase plate, frozen-hydrated hPrx3 in thick ice; two data sets (7.3 Å and 4.4 Å reconstructions); D6 symmetry imposed in 3D classification of the first data set

B1: human peroxiredoxin-3 (natural protein, UniProt P30048 62-256, looked up)
chain: APAVTQHAPYFKGTAVVNGEFKDLSLDDFKGKYLVLFFYPLDFTFVCPTEIVAFSDKANEFHDVNCEVVAVSVDSHFSHLAWINTPRKNGGLGHMNIALLSDLTKQISRDYGVLLEGSGLALRGLFIIDPNGVIKHLSVNDLPVGRSVEETLRLVKAFQYVETHGEVCPANWTPDSPTIKPSPAASKEYFQKVNQ
notes: peroxiredoxin-3 (Prx3), human mitochondrial isoform; also called hPrx3; Prx3; source: Rosetta (DE3) cells (Novagen), purified (HisTrap, Superdex 200 gel filtration, TEV cleavage of the His-tag); copies: 12
With B1 the “stoichiometry N” value was 12.
